Laboratory results as given in paper doi:10.1101/2024.06.14.598999 (bioRxiv, 2024).

Legend:
[1] = target: T1, AP5 ζ/σ5 subcomplex, purified (mouse GST-AP5ζ-Twin-Strep with human AP5σ5) (mouse | human, UniProt Q3U829 1-807; Q9NUS5 1-200); experiment: SEC
T1 sequence (looked up) 1: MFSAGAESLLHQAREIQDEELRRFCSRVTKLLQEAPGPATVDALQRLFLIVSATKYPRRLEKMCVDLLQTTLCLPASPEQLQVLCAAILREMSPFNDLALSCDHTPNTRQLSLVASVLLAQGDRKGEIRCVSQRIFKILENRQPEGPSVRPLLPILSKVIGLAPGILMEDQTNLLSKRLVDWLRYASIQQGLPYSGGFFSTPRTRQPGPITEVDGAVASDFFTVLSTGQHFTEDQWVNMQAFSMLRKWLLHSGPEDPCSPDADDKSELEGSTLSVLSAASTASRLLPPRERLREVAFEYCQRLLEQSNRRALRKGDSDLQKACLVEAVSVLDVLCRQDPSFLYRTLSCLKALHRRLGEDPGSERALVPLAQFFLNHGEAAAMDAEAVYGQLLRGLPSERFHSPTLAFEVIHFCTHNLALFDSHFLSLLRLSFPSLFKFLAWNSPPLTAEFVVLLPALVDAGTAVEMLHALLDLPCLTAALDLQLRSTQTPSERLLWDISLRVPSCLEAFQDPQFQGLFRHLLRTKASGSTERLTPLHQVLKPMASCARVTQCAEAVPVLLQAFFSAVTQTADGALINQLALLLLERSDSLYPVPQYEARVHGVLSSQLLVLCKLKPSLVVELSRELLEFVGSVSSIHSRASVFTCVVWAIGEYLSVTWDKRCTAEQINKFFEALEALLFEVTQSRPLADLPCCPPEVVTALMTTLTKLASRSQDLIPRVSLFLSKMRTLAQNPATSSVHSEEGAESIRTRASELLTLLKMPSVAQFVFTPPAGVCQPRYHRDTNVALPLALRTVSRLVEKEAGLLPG
T1 sequence (looked up) 2: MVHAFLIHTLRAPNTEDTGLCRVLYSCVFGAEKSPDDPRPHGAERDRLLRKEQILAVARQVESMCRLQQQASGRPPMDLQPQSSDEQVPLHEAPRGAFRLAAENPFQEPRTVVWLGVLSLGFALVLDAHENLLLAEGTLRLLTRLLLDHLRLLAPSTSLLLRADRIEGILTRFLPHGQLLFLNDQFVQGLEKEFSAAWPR

[2] = target: T2, AP5 β5^trunk/µ5 subcomplex, purified (human GST-AP5β5(1-632)-Twin-Strep with mouse AP5μ5) (human | mouse, UniProt Q2VPB7 1-632; Q8BJ63 1-490); experiment: SEC
T2 sequence (looked up) 1: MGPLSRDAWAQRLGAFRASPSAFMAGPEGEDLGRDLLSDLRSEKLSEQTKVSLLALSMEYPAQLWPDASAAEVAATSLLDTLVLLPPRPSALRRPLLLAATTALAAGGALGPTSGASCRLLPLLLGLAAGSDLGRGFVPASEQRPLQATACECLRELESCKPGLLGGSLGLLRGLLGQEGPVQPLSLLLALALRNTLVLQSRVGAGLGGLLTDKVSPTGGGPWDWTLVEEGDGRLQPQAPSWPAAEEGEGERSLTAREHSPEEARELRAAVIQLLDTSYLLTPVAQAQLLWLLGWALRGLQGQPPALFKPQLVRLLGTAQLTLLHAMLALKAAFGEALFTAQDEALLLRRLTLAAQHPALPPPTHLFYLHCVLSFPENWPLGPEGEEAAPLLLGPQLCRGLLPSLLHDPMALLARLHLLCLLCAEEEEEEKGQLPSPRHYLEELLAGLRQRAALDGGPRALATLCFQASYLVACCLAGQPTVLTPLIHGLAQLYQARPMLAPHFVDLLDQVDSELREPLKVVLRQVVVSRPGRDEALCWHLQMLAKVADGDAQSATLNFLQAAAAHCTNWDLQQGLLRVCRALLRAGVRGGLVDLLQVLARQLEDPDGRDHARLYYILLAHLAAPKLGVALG
T2 sequence (looked up) 2: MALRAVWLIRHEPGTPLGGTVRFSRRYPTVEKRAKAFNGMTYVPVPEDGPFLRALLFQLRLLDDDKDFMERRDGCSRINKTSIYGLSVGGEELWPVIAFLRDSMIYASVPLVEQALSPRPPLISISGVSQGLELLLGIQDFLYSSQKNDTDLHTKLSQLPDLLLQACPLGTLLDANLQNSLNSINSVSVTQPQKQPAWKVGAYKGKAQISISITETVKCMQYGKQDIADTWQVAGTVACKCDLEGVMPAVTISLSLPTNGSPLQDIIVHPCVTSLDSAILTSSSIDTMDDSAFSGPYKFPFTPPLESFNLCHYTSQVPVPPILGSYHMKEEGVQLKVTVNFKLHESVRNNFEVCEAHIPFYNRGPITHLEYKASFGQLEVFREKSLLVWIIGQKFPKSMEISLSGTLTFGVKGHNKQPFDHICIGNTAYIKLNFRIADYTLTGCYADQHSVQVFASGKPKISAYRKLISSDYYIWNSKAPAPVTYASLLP

B1: SPG11^WD40-hairpin (human SPG11 residues 1-525) as incubated with the AP5 subcomplexes for size exclusion chromatography (domain or fragment, UniProt Q96JI7 1-525, looked up)
chain: MAAEEGVASAASAGGSWGTAAMGRVLPMLLVPVPAEAMGQLGSRAQLRTQPEALGSLTAAGSLQVLSLTPGSRGGGRCCLEGPFWHFLWEDSRNSSTPTEKPKLLALGENYELLIYEFNLKDGRCDATILYSCSREALQKLIDDQDISISLLSLRILSFHNNTSLLFINKCVILHIIFPERDAAIRVLNCFTLPLPAQAVDMIIDTQLCRGILFVLSSLGWIYIFDVVDGTYVAHVDLALHKEDMCNEQQQEPAKISSFTSLKVSQDLDVAVIVSSSNSAVALNLNLYFRQHPGHLLCERILEDLPIQGPKGVDEDDPVNSAYNMKLAKFSFQIDRSWKAQLSSLNETIKNSKLEVSCCAPWFQDILHLESPESGNHSTSVQSWAFIPQDIMHGQYNVLQKDHAKTSDPGRSWKIMHISEQEEPIELKCVSVTGFTALFTWEVERMGYTITLWDLETQGMQCFSLGTKCIPVDSSGDQQLCFVLTENGLSLILFGLTQEEFLNRLMIHGSASTVDTLCHLNGWGR
[1]
  binding result: binds
[2]
  binding result: binds
